Results: the supplement of paper PMC11246515
± gives the standard deviation of the averaged measurements.

Assay: total protein half-life in vivo (active degradation + dilution); higher = more stable protein
[1] = E. coli NCM3722 delta-clpP delta-lon delta-hslV, growth: N-lim chemostat, doubling time 6 h
[2] = E. coli NCM3722 delta-clpP, growth: N-lim chemostat, doubling time 6 h
[3] = E. coli NCM3722 delta-hslV, growth: N-lim chemostat, doubling time 6 h
[4] = E. coli NCM3722 delta-lon, growth: N-lim chemostat, doubling time 6 h
[5] = E. coli NCM3722 delta-smpB, growth: N-lim chemostat, doubling time 6 h
[6] = wild type E. coli NCM3722, growth: C-lim chemostat, doubling time 3 h
[7] = wild type E. coli NCM3722, growth: C-lim chemostat, doubling time 6 h
[8] = wild type E. coli NCM3722, growth: C-lim chemostat, doubling time 12 h
[9] = wild type E. coli NCM3722, growth: N-lim chemostat, doubling time 6 h
[10] = wild type E. coli NCM3722, growth: N-lim chemostat, doubling time 12 h
[11] = wild type E. coli NCM3722, growth: P-lim chemostat, doubling time 6 h
[12] = wild type E. coli NCM3722, growth: P-lim chemostat, doubling time 12 h

Sequence | total protein half-life in vivo [1] [h] | total protein half-life in vivo [2] [h] | total protein half-life in vivo [3] [h] | total protein half-life in vivo [4] [h] | total protein half-life in vivo [5] [h] | total protein half-life in vivo [6] [h] | total protein half-life in vivo [7] [h] | total protein half-life in vivo [8] [h] | total protein half-life in vivo [9] [h] | total protein half-life in vivo [10] [h] | total protein half-life in vivo [11] [h] | total protein half-life in vivo [12] [h]
MIKKASLLTACSVTAFSAWAQDTSPDTLVVTANRFEQPRSTVLAPTTVVTRQDIDRWQSTSVNDVLRRLPGVDITQNGGSGQLSSIFIRGTNASHVLVLIDGVRLNLAGVSGSADLSQFPIALVQRVEYIRGPRSAVYGSDAIGGVVNIITTRDEPGTEISAGWGSNSYQNYDVSTQQQLGDKTRVTLLGDYAHTHGYDVVAYGNTGTQAQTDNDGFLSKTLYGALEHNFTDAWSGFVRGYGYDNRTNYDAYYSPGSPLLDTRKLYSQSWDAGLRYNGELIKSQLITSYSHSKDYNYDPHYGRYDSSATLDEMKQYTVQWANNVIVGHGSIGAGVDWQKQTTTPGTGYVEDGYDQRNTGIYLTGLQQVGDFTFEGAARSDDNSQFGRHGTWQTSAGWEFIEGYRFIASYGTSYKAPNLGQLYGFYGNPNLDPEKSKQWEGAFEGLTAGVNWRISGYRNDVSDLIDYDDHTLKYYNEGKARIKGVEATANFDTGPLTHTVSYDYVDARNAITDTPLLRRAKQQVKYQLDWQLYDFDWGITYQYLGTRYDKDYSSYPYQTVKMGGVSLWDLAVAYPVTSHLTVRGKIANLFDKDYETVYGYQTAGREYTLSGSYTF | 6.44 ± 0.73 | 6.76 ± 0.089 | 6.84 ± 0.059 | 6.49 ± 0.47 | 6.07 ± 0.27 | 3.26 ± 0.15 | 6.12 ± 0.2 | 12.3 ± 0.2 | 6.29 ± 0.28 | 13.5 ± 1.7 | 6.23 ± 0.18 | 12.8 ± 0.14
MIKKIFALPVIEQISPVLSRRKLDELDLIVVDHPQVKASFALQGAHLLSWKPAGEEEVLWLSNNTPFKNGVAIRGGVPVCWPWFGPAAQQGLPAHGFARNLPWTLKSHHEDADGVALTFELTQSEETKKFWPHDFTLLAHFRVGKTCEIDLESHGEFETTSALHTYFNVGDIAKVSVSGLGDRFIDKVNDAKENVLTDGIQTFPDRTDRVYLNPQDCSVINDEALNRIIAVGHQHHLNVVGWNPGPALSISMGDMPDDGYKTFVCVETAYASETQKVTKEKPAHLAQSIRVAKR | 5.78 ± 0.46 | 5.24 ± 0.6 | 6.17 ± 1.1 | 5.11 ± 0.53 | 5.67 ± 0.29 | – | – | 13 ± 1.6 | 5.42 ± 0.3 | 13.7 ± 2.5 | 5.72 ± 0.72 | 12.9 ± 1.8
MIKPTFLRRVAIAALLSGSCFSAAAAPPAPPVSYGVEEDVFHPVRAKQGMVASVDATATQVGVDILKEGGNAVDAAVAVGYALAVTHPQAGNLGGGGFMLIRSKNGNTTAIDFREMAPAKATRDMFLDDQGNPDSKKSLTSHLASGTPGTVAGFSLALDKYGTMPLNKVVQPAFKLARDGFIVNDALADDLKTYGSEVLPNHENSKAIFWKEGEPLKKGDTLVQANLAKSLEMIAENGPDEFYKGTIAEQIAQEMQKNGGLITKEDLAAYKAVERTPISGDYRGYQVYSMPPPSSGGIHIVQILNILENFDMKKYGFGSADAMQIMAEAEKYAYADRSEYLGDPDFVKVPWQALTNKAYAKSIADQIDINKAKPSSEIRPGKLAPYESNQTTHYSVVDKDGNAVAVTYTLNTTFGTGIVAGESGILLNNQMDDFSAKPGVPNVYGLVGGDANAVGPNKRPLSSMSPTIVVKDGKTWLVTGSPGGSRIITTVLQMVVNSIDYGLNVAEATNAPRFHHQWLPDELRVEKGFSPDTLKLLEAKGQKVALKEAMGSTQSIMVGPDGELYGASDPRSVDDLTAGY | 6.01 ± 0.77 | – | 5.99 ± 0.16 | – | 6.24 ± 0.43 | 3.1 ± 0.34 | 5.9124 ± 0.0049 | 12.2 ± 2.3 | 6.219 ± 0.013 | 12.42 ± 0.05 | 5.73 ± 0.52 | 13.2 ± 1.1
MIKRVLVVSMVGLSLVGCVNNDTLSGDVYTASEAKQVQNVSYGTIVNVRPVQIQGGDDSNVIGAIGGAVLGGFLGNTVGGGTGRSLATAAGAVAGGVAGQGVQSAMNKTQGVELEIRKDDGNTIMVVQKQGNTRFSPGQRVVLASNGSQVTVSPR [P0A905] | 5.26 ± 0.26 | 5.83 ± 0.096 | 6.11 ± 0.62 | 6.23 ± 0.85 | 6.1 ± 0.32 | 2.899 ± 0.023 | 5.41 ± 0.79 | 9.39 ± 0.33 | 5.49 ± 0.094 | 11.5 ± 0.94 | 5.87 ± 0.41 | 11.5 ± 0.73
MIKSALLVLEDGTQFHGRAIGATGSAVGEVVFNTSMTGYQEILTDPSYSRQIVTLTYPHIGNVGTNDADEESSQVHAQGLVIRDLPLIASNFRNTEDLSSYLKRHNIVAIADIDTRKLTRLLREKGAQNGCIIAGDNPDAALALEKARAFPGLNGMDLAKEVTTAEAYSWTQGSWTLTGGLPEAKKEDELPFHVVAYDFGAKRNILRMLVDRGCRLTIVPAQTSAEDVLKMNPDGIFLSNGPGDPAPCDYAITAIQKFLETDIPVFGICLGHQLLALASGAKTVKMKFGHHGGNHPVKDVEKNVVMITAQNHGFAVDEATLPANLRVTHKSLFDGTLQGIHRTDKPAFSFQGHPEASPGPHDAAPLFDHFIELIEQYRKTAK [P0A6F1] | 4.95 ± 1 | 4.51 ± 0.39 | 4.72 ± 0.13 | 5.36 ± 0.35 | 4.6318 ± 0.0031 | 3.18 ± 0.27 | – | 9.87 ± 0.035 | 4.466 ± 0.015 | 7.43 ± 0.44 | 5.95 ± 0.087 | 12.1 ± 0.28
MIKSKIVLLSALVSCALISGCKEENKTNVSIEFMHSSVEQERQAVISKLIARFEKENPGITVKQVPVEEDAYNTKVITLSRSGSLPEVIETSHDYAKVMDKEQLIDRKAVATVISNVGEGAFYDGVLRIVRTEDGSAWTGVPVSAWIGGIWYRKDVLAKAGLEEPKNWQQLLDVAQKLNDPANKKYGIALPTAESVLTEQSFSQFALSNQANVFNAEGKITLDTPEMMQALTYYRDLTANTMPGSNDIMEVKDAFMNGTAPMAIYSTYILPAVIKEGDPKNVGFVVPTEKNSAVYGMLTSLTITAGQKTEETEAAEKFVTFMEQADNIADWVMMSPGAALPVNKAVVTTATWKDNDVIKALGELPNQLIGELPNIQVFGAVGDKNFTRMGDVTGSGVVSSMVHNVTVGKADLSTTLQASQKKLDELIEQH | 5.01 | – | – | – | – | 3 | 4.35 ± 1.8 | 13.3 | – | – | – | –
MIKWPWKVQESAHQTALPWQEALSIPLLTCLTEQEQSKLVTLAERFLQQKRLVPLQGFELDSLRSCRIALLFCLPVLELGLEWLDGFHEVLIYPAPFVVDDEWEDDIGLVHNQRIVQSGQSWQQGPIVLNWLDIQDSFDASGFNLIIHEVAHKLDTRNGDRASGVPFIPLREVAGWEHDLHAAMNNIQEEIELVGENAASIDAYAASDPAECFAVLSEYFFSAPELFAPRFPSLWQRFCQFYQQDPLQRLHHANDTDSFSATNVH | 4.48 ± 0.42 | 3.08 ± 0.31 | 1.36 ± 0.03 | 1.79 ± 0.075 | 1.51 ± 0.037 | 1.16 ± 0.016 | 1.87 ± 0.28 | 2.19 ± 0.13 | 1.53 | 2.44 ± 0.53 | 1.76 ± 0.39 | 3.29 ± 0.75
